The test system of data set [1] is HeLa Kyoto. Nature of the data set: thermal stability score vs G1/S (z-score of summed log2 fold changes over temperatures); higher = more thermally stable than in G1/S.
Data set [2] relates to HeLa Kyoto. Nature of the data set: solubility in G1/S (NP-40 vs SDS abundance) (log2 ratio); higher = more soluble. Particulars: cell cycle stage: G1/S.
Data set [3] has as its system HeLa Kyoto. Nature of the data set: melting temperature (median over replicates), in situ; higher = more thermally stable.
Data set [4] deals with HeLa Kyoto. Nature of the data set: solubility change mitosis vs G1/S (difference of NP-40 vs SDS log2 ratios) (log2 ratio difference); higher = more soluble in mitosis.
Where [5] appears, read: cell cycle stage: early G1 (4.5 h after nocodazole release).
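Throughout, for melting temperature (median over replicates), in situ: HeLa Kyoto cells synchronized by double thymidine or nocodazole block, proteins quantified by TMT10plex mass spectrometry, three independent biological replicates.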
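Throughout, for solubility change mitosis vs G1/S (difference of NP-40 vs SDS log2 ratios): synchronized HeLa Kyoto cells (double thymidine block for G1/S, nocodazole release for mitosis), protein amounts in NP-40 versus SDS lysates quantified by mass spectrometry, three biological replicates.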
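Throughout, for solubility in G1/S (NP-40 vs SDS abundance): HeLa Kyoto cells arrested at G1/S by double thymidine block, proteins quantified by TMT10plex mass spectrometry in mild NP-40 versus SDS extracts, three biological replicates.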
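Throughout, for thermal stability score vs G1/S (z-score of summed log2 fold changes over temperatures): synchronized HeLa Kyoto cells, proteins quantified by TMT10plex mass spectrometry, three biological replicates, mitosis taken 0.5 h after nocodazole release, G1/S directly after double thymidine block.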

Turning to “MAAATGPSFWLGNETLKVPLALFALNRQRLCERLRKNPAVQAGSIVVLQGGEETQRYCTDTGVLFRQESFFHWAFGVTEPGCYGVIDVDTGKSTLFVPRLPASHATWMGKIHSKEHFKEKYAVDDVQYVDEIASVLTSQKPSVLLTLRGVNTDSGSVCREASFDGISKFEVNNTILHPEIVECRVFKTDMELEVLRYTNKISSEAHREVMKAVKVGMKEYELESLFEHYCYSRGGMRHSSYTCICGSGENSAVLHYGHAGAPNDRTIQNGDMCLFDMGGEYYCFASDITCSFPANGKFTADQKAVYEAVLRSSRAVMGAMKPGVWWPDMHRLADRIHLEELAHMGILSGSVDAMVQAHLGAVFMPHGLGHFLGIDVHDVGGYPEGVERIDEPGLRSLRTARHLQPGMVLTVEPGIYFIDHLLDEALADPARASFLNREVLQRFRGFGGVRIEEDVVVTDSGIELLTCVPRTVEEIEACMAGCDKAFTPFSGPK [PEPD]”, the results for the thermal stability score in the data set with HeLa Kyoto [1] (setting [5]) and in the data set with HeLa Kyoto [1] (cell cycle stage: mitosis) were -1.19 and -2.41, respectively. Moreover, the “solubility in G1/S (log2)” value in the data set with HeLa Kyoto [2] is -0.0689. The melting temperature with HeLa Kyoto [3] (cell cycle stage: G1/S) stood at 54.1 °C; with HeLa Kyoto [3] (cell cycle stage: mitosis), 53.8 °C. For the same sequence, in the data set with HeLa Kyoto [4], the “solubility change mitosis (log2)” value is -0.184.

Take “MSVTLHTDVGDIKIEVFCERTPKTCENFLALCASNYYNGCIFHRNIKGFMVQTGDPTGTGRGGNSIWGKKFEDEYSEYLKHNVRGVVSMANNGPNTNGSQFFITYGKQPHLDMKYTVFGKVIDGLETLDELEKLPVNEKTYRPLNDVHIKDITIHANPFAQ [PPIL3]”: the thermal stability score in the data set on HeLa Kyoto [1] (setting [5]) stood at 1.02; in the data set on HeLa Kyoto [1] (cell cycle stage: mitosis), 1.31. The “solubility in G1/S (log2)” value with HeLa Kyoto [2] was 0.455. Also, the results for the melting temperature in the data set with HeLa Kyoto [3] (cell cycle stage: G1/S) and in the data set on HeLa Kyoto [3] (cell cycle stage: mitosis) were 48.9 °C and 50 °C, respectively. Also, in the data set with HeLa Kyoto [4], the “solubility change mitosis (log2)” value is -0.00294.

Consider “MEDLGENTMVLSTLRSLNNFISQRVEGGSGLDISTSAPGSLQMQYQQSMQLEERAEQIRSKSHLIQVEREKMQMELSHKRARVELERAASTSARNYEREVDRNQELLTRIRQLQEREAGAEEKMQEQLERNRQCQQNLDAASKRLREKEDSLAQAGETINALKGRISELQWSVMDQEMRVKRLESEKQELQEQLDLQHKKCQEANQKIQELQASQEARADHEQQIKDLEQKLSLQEQDAAIVKNMKSELVRLPRLERELKQLREESAHLREMRETNGLLQEELEGLQRKLGRQEKMQETLVGLELENERLLAKLQSWERLDQTMGLSIRTPEDLSRFVVELQQRELALKDKNSAVTSSARGLEKARQQLQEELRQVSGQLLEERKKRETHEALARRLQKRVLLLTKERDGMRAILGSYDSELTPAEYSPQLTRRMREAEDMVQKVHSHSAEMEAQLSQALEELGGQKQRADMLEMELKMLKSQSSSAEQSFLFSREEADTLRLKVEELEGERSRLEEEKRMLEAQLERRALQGDYDQSRTKVLHMSLNPTSVARQRLREDHSQLQAECERLRGLLRAMERGGTVPADLEAAAASLPSSKEVAELKKQVESAELKNQRLKEVFQTKIQEFRKACYTLTGYQIDITTENQYRLTSLYAEHPGDCLIFKATSPSGSKMQLLETEFSHTVGELIEVHLRRQDSIPAFLSSLTLELFSRQTVA [MAD1L1]”, for which the thermal stability score came to 0.414 in the data set with HeLa Kyoto [1] (setting [5]) and 0.454 in the data set on HeLa Kyoto [1] (cell cycle stage: mitosis). Moreover, the “solubility in G1/S (log2)” value with HeLa Kyoto [2] was 0.361. For the same sequence, the figures for the melting temperature in the data set on HeLa Kyoto [3] (cell cycle stage: G1/S) and with HeLa Kyoto [3] (cell cycle stage: mitosis) were 48.4 °C and 47.8 °C, respectively. In addition, the “solubility change mitosis (log2)” value with HeLa Kyoto [4] was -0.0768.

Consider “MNGDSRAAVVTSPPPTTAPHKERYFDRVDENNPEYLRERNMAPDLRQDFNMMEQKKRVSMILQSPAFCEELESMIQEQFKKGKNPTGLLALQQIADFMTTNVPNVYPAAPQGGMAALNMSLGMVTPVNDLRGSDSIAYDKGEKLLRCKLAAFYRLADLFGWSQLIYNHITTRVNSEQEHFLIVPFGLLYSEVTASSLVKINLQGDIVDRGSTNLGVNQAGFTLHSAIYAARPDVKCVVHIHTPAGAAVSAMKCGLLPISPEALSLGEVAYHDYHGILVDEEEKVLIQKNLGPKSKVLILRNHGLVSVGESVEEAFYYIHNLVVACEIQVRTLASAGGPDNLVLLNPEKYKAKSRSPGSPVGEGTGSPPKWQIGEQEFEALMRMLDNLGYRTGYPYRYPALREKSKKYSDVEVPASVTGYSFASDGDSGTCSPLRHSFQKQQREKTRWLNSGRGDEASEEGQNGSSPKSKTKWTKEDGHRTSTSAVPNLFVPLNTNPKEVQEMRNKIREQNLQDIKTAGPQSQVLCGVVMDRSLVQGELVTASKAIIEKEYQPHVIVSTTGPNPFTTLTDRELEEYRREVERKQKGSEENLDEAREQKEKSPPDQPAVPHPPPSTPIKLEEDLVPEPTTGDDSDAATFKPTLPDLSPDEPSEALGFPMLEKEEEAHRPPSPTEAPTEASPEPAPDPAPVAEEAAPSAVEEGAAADPGSDGSPGKSPSKKKKKFRTPSFLKKSKKKSDS [ADD1]”, for which the thermal stability score in the data set on HeLa Kyoto [1] (setting [5]) is -4.45; in the data set with HeLa Kyoto [1] (cell cycle stage: mitosis), -3.29. Also, in the data set with HeLa Kyoto [2], the “solubility in G1/S (log2)” value was determined as 0.119. The values for the melting temperature in the data set with HeLa Kyoto [3] (cell cycle stage: G1/S) and with HeLa Kyoto [3] (cell cycle stage: mitosis) were 55.2 °C and 55.1 °C, respectively. Moreover, in the data set on HeLa Kyoto [4], the “solubility change mitosis (log2)” value is 0.0666.

As to “MVSIPEYYEGKNVLLTGATGFLGKVLLEKLLRSCPKVNSVYVLVRQKAGQTPQERVEEVLSGKLFDRLRDENPDFREKIIAINSELTQPKLALSEEDKEVIIDSTNIIFHCAATVRFNENLRDAVQLNVIATRQLILLAQQMKNLEVFMHVSTAYAYCNRKHIDEVVYPPPVDPKKLIDSLEWMDDGLVNDITPKLIGDRPNTYIYTKALAEYVVQQEGAKLNVAIVRPSIVGASWKEPFPGWIDNFNGPSGLFIAAGKGILRTIRASNNALADLVPVDVVVNMSLAAAWYSGVNRPRNIMVYNCTTGSTNPFHWGEVEYHVISTFKRNPLEQAFRRPNVNLTSNHLLYHYWIAVSHKAPAFLYDIYLRMTGRSPRMMKTITRLHKAMVFLEYFTSNSWVWNTENVNMLMNQLNPEDKKTFNIDVRQLHWAEYIENYCLGTKKYVLNEEMSGLPAARKHLNKLRNIRYGFNTILVILIWRIFIARSQMARNIWYFVVSLCYKFLSYFRASSTMRY [FAR1]”, the thermal stability score in the data set with HeLa Kyoto [1] (setting [5]) was determined as 0.0485; with HeLa Kyoto [1] (cell cycle stage: mitosis), 0.111. For the same sequence, in the data set on HeLa Kyoto [2], the “solubility in G1/S (log2)” value was -0.254. Also, the melting temperature amounted to 51.7 °C with HeLa Kyoto [3] (cell cycle stage: G1/S) and 51.2 °C in the data set with HeLa Kyoto [3] (cell cycle stage: mitosis). The “solubility change mitosis (log2)” value in the data set with HeLa Kyoto [4] is -0.0436.

As to “MGDTVVEPAPLKPTSEPTSGPPGNNGGSLLSVITEGVGELSVIDPEVAQKACQEVLEKVKLLHGGVAVSSRGTPLELVNGDGVDSEIRCLDDPPAQIREEEDEMGAAVASGTAKGARRRRQNNSAKQSWLLRLFESKLFDISMAISYLYNSKEPGVQAYIGNRLFCFRNEDVDFYLPQLLNMYIHMDEDVGDAIKPYIVHRCRQSINFSLQCALLLGAYSSDMHISTQRHSRGTKLRKLILSDELKPAHRKRELPSLSPAPDTGLSPSKRTHQRSKSDATASISLSSNLKRTASNPKVENEDEELSSSTESIDNSFSSPVRLAPEREFIKSLMAIGKRLATLPTKEQKTQRLISELSLLNHKLPARVWLPTAGFDHHVVRVPHTQAVVLNSKDKAPYLIYVEVLECENFDTTSVPARIPENRIRSTRSVENLPECGITHEQRAGSFSTVPNYDNDDEAWSVDDIGELQVELPEVHTNSCDNISQFSVDSITSQESKEPVFIAAGDIRRRLSEQLAHTPTAFKRDPEDPSAVALKEPWQEKVRRIREGSPYGHLPNWRLLSVIVKCGDDLRQELLAFQVLKQLQSIWEQERVPLWIKPYKILVISADSGMIEPVVNAVSIHQVKKQSQLSLLDYFLQEHGSYTTEAFLSAQRNFVQSCAGYCLVCYLLQVKDRHNGNILLDAEGHIIHIDFGFILSSSPRNLGFETSAFKLTTEFVDVMGGLDGDMFNYYKMLMLQGLIAARKHMDKVVQIVEIMQQGSQLPCFHGSSTIRNLKERFHMSMTEEQLQLLVEQMVDGSMRSITTKLYDGFQYLTNGIM [PI4KB]”, the thermal stability score was -0.522 in the data set with HeLa Kyoto [1] (setting [5]) and -0.618 with HeLa Kyoto [1] (cell cycle stage: mitosis). Moreover, in the data set with HeLa Kyoto [2], the “solubility in G1/S (log2)” value turned out to be 0.00648. The melting temperature in the data set with HeLa Kyoto [3] (cell cycle stage: G1/S) turned out to be 52.3 °C; with HeLa Kyoto [3] (cell cycle stage: mitosis) it was 52.2 °C. In the data set with HeLa Kyoto [4], the “solubility change mitosis (log2)” value was -0.221.

Source of the values: the supplement of paper PMC5998384.
